Non-standard residues stand in square brackets, D forms with d.
Key:
[1] = system: MC5R; details: at 100 μM concentrations, β-galactosidase assay; cited from earlier work
[2] = molecular target: mMC5R (Mus musculus, UniProt P41149); assay: cell-based
[3] = molecular target: mouse melanocortin-4 receptor (mouse) (UniProt P56450)
[4] = molecular target: mouse melanocortin-5 receptor (mouse) (UniProt P41149)
[5] = molecular target: mouse melanocortin-1 receptor (mouse) (UniProt Q01727)
[6] = molecular target: mouse melanocortin-3 receptor (mouse) (UniProt P33033)
Chain of mouse melanocortin-3 receptor (mouse) (P33033 whole entry): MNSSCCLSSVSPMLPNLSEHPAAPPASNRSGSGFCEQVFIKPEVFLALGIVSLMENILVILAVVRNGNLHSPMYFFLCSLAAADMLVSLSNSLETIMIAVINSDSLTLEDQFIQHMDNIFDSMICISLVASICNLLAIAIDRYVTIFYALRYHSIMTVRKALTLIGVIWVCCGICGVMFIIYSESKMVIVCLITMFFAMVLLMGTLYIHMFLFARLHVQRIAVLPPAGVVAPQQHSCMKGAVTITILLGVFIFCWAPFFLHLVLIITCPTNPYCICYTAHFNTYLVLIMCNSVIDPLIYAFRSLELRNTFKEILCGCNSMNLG

[7] = molecular target: mMC3R (Mus musculus, UniProt P33033); details: read-out: Ki app at mMC3R; displacement of radiolabeled NDP-MSH; cited from earlier work
Chain of mMC3R (P33033 whole entry): as above

[8] = molecular target: mMC4R (Mus musculus, UniProt P56450); details: read-out: Ki app at mMC4R; displacement of radiolabeled NDP-MSH; cited from earlier work
Chain of mMC4R (P56450 whole entry): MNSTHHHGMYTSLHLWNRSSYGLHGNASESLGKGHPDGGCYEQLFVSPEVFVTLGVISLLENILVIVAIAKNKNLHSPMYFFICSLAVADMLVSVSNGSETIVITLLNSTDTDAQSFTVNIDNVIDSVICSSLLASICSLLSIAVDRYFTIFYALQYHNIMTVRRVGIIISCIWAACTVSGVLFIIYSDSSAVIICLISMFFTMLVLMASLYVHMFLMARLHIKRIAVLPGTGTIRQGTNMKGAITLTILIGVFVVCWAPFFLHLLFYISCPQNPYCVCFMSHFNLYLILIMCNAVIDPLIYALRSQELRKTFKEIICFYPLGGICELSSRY

[9] = molecular target: mMC1R (Mus musculus, UniProt Q01727); details: read-out: Ki app at mMC1R; displacement of radiolabeled NDP-MSH; cited from earlier work
Chain of mMC1R (Q01727 whole entry): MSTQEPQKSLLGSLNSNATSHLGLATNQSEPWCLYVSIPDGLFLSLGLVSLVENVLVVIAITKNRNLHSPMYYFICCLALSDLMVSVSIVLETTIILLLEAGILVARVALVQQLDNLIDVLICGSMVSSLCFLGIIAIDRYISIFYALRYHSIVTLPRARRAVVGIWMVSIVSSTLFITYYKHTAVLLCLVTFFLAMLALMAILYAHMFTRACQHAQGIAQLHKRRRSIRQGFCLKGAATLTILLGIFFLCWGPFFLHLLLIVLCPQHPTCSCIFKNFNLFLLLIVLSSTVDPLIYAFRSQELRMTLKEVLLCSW

Chain of mouse melanocortin-4 receptor (mouse) (P56450 whole entry): as the sequence (P56450 whole entry) above
Chain of mouse melanocortin-5 receptor (mouse) (P41149 whole entry): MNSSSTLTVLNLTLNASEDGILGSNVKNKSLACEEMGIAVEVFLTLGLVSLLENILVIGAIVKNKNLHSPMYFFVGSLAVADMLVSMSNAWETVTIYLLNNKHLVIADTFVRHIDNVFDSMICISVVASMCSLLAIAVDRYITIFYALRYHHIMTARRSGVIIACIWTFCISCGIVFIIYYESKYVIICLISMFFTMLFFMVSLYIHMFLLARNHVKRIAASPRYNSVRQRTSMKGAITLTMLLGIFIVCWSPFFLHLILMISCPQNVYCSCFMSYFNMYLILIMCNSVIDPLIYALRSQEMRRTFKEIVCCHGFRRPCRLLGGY
Chain of mouse melanocortin-1 receptor (mouse) (Q01727 whole entry): as the sequence (Q01727 whole entry) above
Chain of mMC5R (P41149 whole entry): as the sequence (P41149 whole entry) above

| Molecule | activity at the MC5R [1] | agonist EC50 (cAMP AlphaScreen, HEK293 cells stably expressing the receptor) [3] | agonist EC50 (cAMP AlphaScreen, HEK293 cells stably expressing the receptor) [4] | agonist EC50 (cAMP AlphaScreen, HEK293 cells stably expressing the receptor) [5] | agonist EC50 (cAMP AlphaScreen, HEK293 cells stably expressing the receptor) [6] | further results |
| --- | --- | --- | --- | --- | --- | --- |
| C[C@@H]1NC(=O)[C@H](CC(N)=O)NC(=O)[C@H](Cc2ccccc2)NC(=O)[C@H](Cc2ccccc2)NC(=O)[C@H](CCCNC(=N)N)NC(=O)[C@@H]2CCCN2C(=O)[C@H]2CCCN2C(=O)[C@H](Cc2ccccc2)NC1=O [Peptide 1, c[Pro-Arg-Phe-Phe-Asn-Ala-Phe-DPro]] | no activity | – | – | – | – | – |
| C[C@@H]1NC(=O)[C@H](CN)NC(=O)[C@H](Cc2ccccc2)NC(=O)[C@H](Cc2ccccc2)NC(=O)[C@H](CCCNC(=N)N)NC(=O)[C@@H]2CCCN2C(=O)[C@H]2CCCN2C(=O)[C@H](Cc2ccccc2)NC1=O [Peptide 2, c[Pro-Arg-Phe-Phe-Dap-Ala-Phe-DPro]] | no activity | – | – | – | – | EC50 [2]: 0.06 µM |
| c[Pro-Arg-Phe-Phe-Nle-Ala-Phe-DPro] (peptide) | – | > 100 µM | > 100 µM | > 100 µM | > 100 µM | – |
| mASP: recombinant mouse agouti-signaling protein (protein, UniProt Q03288 23-131, looked up) Agouti-signaling protein: HLALEETLGDDRSLRSNSSMNSLDFSSVSIVALNKKSKKISRKEAEKRKRSSKKKASMKKVARPPPPSPCVATRDSCKPPAPACCDPCASCQCRFFGSACTCRVLNPNC | – | – | – | – | – | Ki [7]: 0.19 µM; Ki [8]: 0.054 µM; Ki [9]: 0.0026 µM |
| cyclo(PRFFNHF[dP]) (SMILES N=C(N)NCCC[C@@H]1NC(=O)[C@@H]2CCCN2C(=O)[C@H]2CCCN2C(=O)[C@H](Cc2ccccc2)NC(=O)[C@H](Cc2c[nH]cn2)NC(=O)[C@H](CC(N)=O)NC(=O)[C@H](Cc2ccccc2)NC(=O)[C@H](Cc2ccccc2)NC1=O) [c[Pro-Arg-Phe-Phe-Asn-His-Phe-DPro]] | – | > 100 µM | > 100 µM | – | > 100 µM | – |
| cyclo(PRFFFAF[dP]) (SMILES C[C@@H]1NC(=O)[C@H](Cc2ccccc2)NC(=O)[C@H](Cc2ccccc2)NC(=O)[C@H](Cc2ccccc2)NC(=O)[C@H](CCCNC(=N)N)NC(=O)[C@@H]2CCCN2C(=O)[C@H]2CCCN2C(=O)[C@H](Cc2ccccc2)NC1=O) [c[Pro-Arg-Phe-Phe-Phe-Ala-Phe-DPro]] | – | > 100 µM | > 100 µM | > 100 µM | > 100 µM | – |
